This series concerns the molecule itself. Kind of series: cryo-EM structure.

We go through 1 protein from paper PMC6570770, “In situ structure and assembly of the multidrug efflux pump AcrAB-TolC” (Nature Communications, 2019).

B1: AcrA (periplasmic adaptor protein of the AcrAB-TolC multidrug efflux pump) (natural protein)
chain: CDDKQAQQGGQQMPAVGVVTVKTEPLQITTELPGRTSAYRIAEVRPQVSGIILKRNFKEGSDIEAGVSLYQIDPATYQATYDSAKGDLAKAQAAANIAQLTVNRYQKLLGTQYISKQEYDQALADAQQANAAVTAAKAAVETARINLAYTKVTSPISGRIGKSNVTEGALVQNGQATALATVQQLDPIYVDVTQSSNDFLRLKQELANGTLKQENGKAKVSLITSDGIKFPQDGTLEFSDVTVDQTTGSITLRAIFPNPDHTLLPGMFVRARLEEGLNPNAILVPQQGVTRTPRGDATVLVVGADDKVETRPIVASQAIGDKWLVTEGLKAGDRVVISGLQKVRPGVQVKAQEVTADNNQQAASGAQPEQSKS
notes: also called periplasmic adaptor protein AcrA; source: E. coli BL21 (DE3), overexpressed from plasmid pAcBH (acrAB locus), in intact cells
Regarding B1, the “stoichiometry N” value stood at 6.
